B1: vNAR V13 (parental sequence) (other)
chain: ASLDQTPRTATRETGESLSINCVLTDTSHILFGTKWLWNNPGSTDWESITIGGRYAESVNNQAKSFSLQIKDLTVEDSGTYYCKAQTIGRRKNLLPRPLVNGIAAMGYSSSDYDGAGTVLTVN
B2: vNAR R97A (clone M4) (other)
chain: ASLDQTPRTATRETGESLSINCVLTDTSHILFGTKWLWNNPGSTDWESITIGGRYAESVNNQAKSFSLQIKDLTVEDSGTYYCKAQTIGRRKNLLPAPLVNGIAAMGYSSSDYDGAGTVLTVN
B3: vNAR P98Y (clone M1), anti-VEGF vNAR of SEQ ID NO:1 (other)
chain: ASLDQTPRTATRETGESLSINCVLTDTSHILFGTKWLWNNPGSTDWESITIGGRYAESVNNQAKSFSLQIKDLTVEDSGTYYCKAQTIGRRKNLLPRYLVNGIAAMGYSSSDYDGAGTVLTVN

In the test the target is VEGF (added at 4 ng/ml in the HUVEC/NHDF angiogenesis assay). Briefly: cell-based or functional assay.
Chain of VEGF (added at 4 ng/ml in the HUVEC/NHDF angiogenesis assay) (P15692 whole entry): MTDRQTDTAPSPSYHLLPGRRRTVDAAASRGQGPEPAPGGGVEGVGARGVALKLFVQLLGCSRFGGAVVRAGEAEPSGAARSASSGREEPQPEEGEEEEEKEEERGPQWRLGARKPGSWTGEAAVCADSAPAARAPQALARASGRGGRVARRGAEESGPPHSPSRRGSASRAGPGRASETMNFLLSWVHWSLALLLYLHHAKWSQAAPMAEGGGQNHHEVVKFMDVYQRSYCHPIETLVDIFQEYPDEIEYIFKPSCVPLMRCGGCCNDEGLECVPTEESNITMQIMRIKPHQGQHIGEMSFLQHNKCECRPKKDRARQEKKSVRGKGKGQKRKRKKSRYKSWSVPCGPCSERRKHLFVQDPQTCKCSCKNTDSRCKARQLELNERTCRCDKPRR
For B1, the “IC50 angiogenesis: network branching” value worked out at 18 µg/mL and the “IC50 angiogenesis: tube length” value was found to be 18 µg/mL.
On to B2, for which the “IC50 angiogenesis: network branching” value is 33 µg/mL and the “IC50 angiogenesis: tube length” value is 21 µg/mL.
Consider B3, for which the “IC50 angiogenesis: network branching” value was 11 µg/mL and the “IC50 angiogenesis: tube length” value was 9 µg/mL.

Source of the values: patent US11155612 (CENTRO DE INVESTIGACI N CIENT FICA Y DE EDUCACI N SUPERIOR …, dated 2021).
